The source of these data is US20210388107A1.

The term EC50 denotes the concentration needed to bring the measured effect to its halfway point. As a reminder, the Kd is the concentration at which binding is half-saturated.

Test [1] has as its target human SIRPαBIT expressed on cells (human) (UniProt P78324). Kind of test: flow cytometry, U937 cells. For orientation: Flow cytometry measures light scatter and fluorescence of single cells or particles in a stream.
Test [2] concerns the target cynomolgus monkey SIRPα expressed on ExpiCHO-S cells (cynomolgus monkey). Kind of test: flow cytometry, ExpiCHO-S cells.
Test [3] addresses human SIRPα1 expressed on cells (human) (UniProt P78324). Kind of test: flow cytometry, ExpiCHO-S cells.
In test [4] the target is human SIRPαBIT expressed on cells (human) (UniProt P78324). Kind of test: flow cytometry, ExpiCHO-S cells.
Test [5] deals with human SIRPβ1v1, AVI-tagged, biotinylated, monomeric form (human) (UniProt O00241). Kind of test: SPR, captured monomeric antigen. (In SPR one partner is held on a chip, and binding of the other changes the refractive index at the surface.)
The target in test [6] is human SIRPβ1v2, AVI-tagged, biotinylated, monomeric form (human) (UniProt Q5TFQ8). Nature of the test: SPR, captured monomeric antigen.
Test [7] has as its target cynomolgus monkey SIRPα, extracellular domain, Avi-FXa-Fc tag (cynomolgus monkey). Nature of the test: SPR, captured biotinylated antigen.
Test [8] has as its target human SIRPα1 extracellular domain 1-370, Avi-FXa-Fc tag (human). Kind of test: SPR, captured biotinylated antigen.
Test [9] has as its target human SIRPαBIT, extracellular domain 1-370, Avi-FXa-Fc tag (human). Nature of the test: SPR, captured biotinylated antigen.
Test [10] has as its target human SIRPβ1v1, extracellular domain, Avi-FXa-Fc tag (human). Nature of the test: SPR, captured biotinylated antigen.
For test [11], the target named is human SIRPβ1v2, extracellular domain, Avi-FXa-Fc tag (human). Kind of test: SPR, captured biotinylated antigen.
Test [12] concerns the target human SIRPγ, extracellular domain, Avi-FXa-Fc tag (human). Kind of test: SPR, captured biotinylated antigen.

Chain of human SIRPαBIT expressed on cells (human) (P78324 31-504 limits assumed): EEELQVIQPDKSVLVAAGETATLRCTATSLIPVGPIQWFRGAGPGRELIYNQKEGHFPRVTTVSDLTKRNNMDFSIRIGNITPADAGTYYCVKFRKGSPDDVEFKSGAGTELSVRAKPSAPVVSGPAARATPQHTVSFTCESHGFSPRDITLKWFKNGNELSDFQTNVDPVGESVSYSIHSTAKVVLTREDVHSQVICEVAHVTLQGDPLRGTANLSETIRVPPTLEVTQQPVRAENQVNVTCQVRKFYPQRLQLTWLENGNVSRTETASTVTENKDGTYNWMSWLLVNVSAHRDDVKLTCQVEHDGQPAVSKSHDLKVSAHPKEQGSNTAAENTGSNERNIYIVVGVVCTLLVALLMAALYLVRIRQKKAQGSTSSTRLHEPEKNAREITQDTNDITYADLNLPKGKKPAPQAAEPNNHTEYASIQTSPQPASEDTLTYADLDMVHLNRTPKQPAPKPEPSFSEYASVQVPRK
Chain of human SIRPβ1v1, AVI-tagged, biotinylated, monomeric form (human) (O00241 30-371): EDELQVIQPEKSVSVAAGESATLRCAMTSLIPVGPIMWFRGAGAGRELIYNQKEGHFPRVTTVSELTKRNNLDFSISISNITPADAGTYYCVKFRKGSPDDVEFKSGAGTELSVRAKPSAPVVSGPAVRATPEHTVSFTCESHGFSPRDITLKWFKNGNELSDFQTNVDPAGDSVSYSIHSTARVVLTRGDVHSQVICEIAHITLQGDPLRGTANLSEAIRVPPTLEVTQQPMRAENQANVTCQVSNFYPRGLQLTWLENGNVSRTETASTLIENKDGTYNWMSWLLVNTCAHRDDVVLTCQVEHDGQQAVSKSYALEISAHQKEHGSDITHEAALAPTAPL
Chain of human SIRPβ1v2, extracellular domain, Avi-FXa-Fc tag (human) (chain, as listed by the source limits assumed): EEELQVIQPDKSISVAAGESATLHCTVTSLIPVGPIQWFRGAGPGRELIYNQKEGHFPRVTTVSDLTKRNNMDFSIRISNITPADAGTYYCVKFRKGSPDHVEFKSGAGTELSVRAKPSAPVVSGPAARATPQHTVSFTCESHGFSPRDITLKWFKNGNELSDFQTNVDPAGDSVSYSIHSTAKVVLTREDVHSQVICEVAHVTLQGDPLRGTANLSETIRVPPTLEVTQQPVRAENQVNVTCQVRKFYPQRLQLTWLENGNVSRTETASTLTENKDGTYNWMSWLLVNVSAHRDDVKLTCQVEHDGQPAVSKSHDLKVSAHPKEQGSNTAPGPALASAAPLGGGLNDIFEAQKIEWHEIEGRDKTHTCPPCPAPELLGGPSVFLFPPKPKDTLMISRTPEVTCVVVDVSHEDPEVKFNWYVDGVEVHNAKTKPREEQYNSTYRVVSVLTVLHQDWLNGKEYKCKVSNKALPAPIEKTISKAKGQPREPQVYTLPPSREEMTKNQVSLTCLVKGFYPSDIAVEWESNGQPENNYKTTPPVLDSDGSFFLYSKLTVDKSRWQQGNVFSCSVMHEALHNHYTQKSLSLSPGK
Chain of human SIRPαBIT, extracellular domain 1-370, Avi-FXa-Fc tag (human) (chain, as listed by the source limits assumed): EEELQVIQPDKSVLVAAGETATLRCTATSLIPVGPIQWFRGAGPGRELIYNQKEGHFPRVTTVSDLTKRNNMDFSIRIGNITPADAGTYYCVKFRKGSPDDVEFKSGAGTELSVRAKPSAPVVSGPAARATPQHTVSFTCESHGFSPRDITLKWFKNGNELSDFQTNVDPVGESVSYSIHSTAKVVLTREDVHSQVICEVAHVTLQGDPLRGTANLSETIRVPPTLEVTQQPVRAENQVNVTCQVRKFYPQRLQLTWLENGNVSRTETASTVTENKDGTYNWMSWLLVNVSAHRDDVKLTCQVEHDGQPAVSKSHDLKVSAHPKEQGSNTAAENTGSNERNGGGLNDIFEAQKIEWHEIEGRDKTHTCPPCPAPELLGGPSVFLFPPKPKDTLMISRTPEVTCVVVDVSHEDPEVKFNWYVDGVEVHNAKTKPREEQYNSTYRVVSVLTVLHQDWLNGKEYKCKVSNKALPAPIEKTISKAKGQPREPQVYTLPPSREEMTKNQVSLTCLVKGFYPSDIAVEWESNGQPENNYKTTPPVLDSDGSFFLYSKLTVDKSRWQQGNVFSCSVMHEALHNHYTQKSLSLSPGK
Chain of human SIRPβ1v1, extracellular domain, Avi-FXa-Fc tag (human) (chain, as listed by the source limits assumed): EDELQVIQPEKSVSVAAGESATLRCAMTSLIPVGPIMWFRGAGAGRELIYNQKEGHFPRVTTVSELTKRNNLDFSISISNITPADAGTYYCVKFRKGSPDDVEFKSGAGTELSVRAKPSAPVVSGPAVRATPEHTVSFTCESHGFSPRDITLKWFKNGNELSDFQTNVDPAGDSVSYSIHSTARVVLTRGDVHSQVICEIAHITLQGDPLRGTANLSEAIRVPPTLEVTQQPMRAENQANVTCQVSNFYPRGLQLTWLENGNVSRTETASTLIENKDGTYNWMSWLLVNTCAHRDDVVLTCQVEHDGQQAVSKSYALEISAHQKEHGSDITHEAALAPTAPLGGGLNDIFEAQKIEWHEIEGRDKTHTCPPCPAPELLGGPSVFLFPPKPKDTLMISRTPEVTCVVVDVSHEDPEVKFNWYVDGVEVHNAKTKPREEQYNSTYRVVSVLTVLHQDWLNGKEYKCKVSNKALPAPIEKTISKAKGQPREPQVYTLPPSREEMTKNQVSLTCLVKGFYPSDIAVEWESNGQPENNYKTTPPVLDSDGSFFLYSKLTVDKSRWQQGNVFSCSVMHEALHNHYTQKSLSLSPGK
Chain of cynomolgus monkey SIRPα, extracellular domain, Avi-FXa-Fc tag (cynomolgus monkey) (chain, as listed by the source limits assumed): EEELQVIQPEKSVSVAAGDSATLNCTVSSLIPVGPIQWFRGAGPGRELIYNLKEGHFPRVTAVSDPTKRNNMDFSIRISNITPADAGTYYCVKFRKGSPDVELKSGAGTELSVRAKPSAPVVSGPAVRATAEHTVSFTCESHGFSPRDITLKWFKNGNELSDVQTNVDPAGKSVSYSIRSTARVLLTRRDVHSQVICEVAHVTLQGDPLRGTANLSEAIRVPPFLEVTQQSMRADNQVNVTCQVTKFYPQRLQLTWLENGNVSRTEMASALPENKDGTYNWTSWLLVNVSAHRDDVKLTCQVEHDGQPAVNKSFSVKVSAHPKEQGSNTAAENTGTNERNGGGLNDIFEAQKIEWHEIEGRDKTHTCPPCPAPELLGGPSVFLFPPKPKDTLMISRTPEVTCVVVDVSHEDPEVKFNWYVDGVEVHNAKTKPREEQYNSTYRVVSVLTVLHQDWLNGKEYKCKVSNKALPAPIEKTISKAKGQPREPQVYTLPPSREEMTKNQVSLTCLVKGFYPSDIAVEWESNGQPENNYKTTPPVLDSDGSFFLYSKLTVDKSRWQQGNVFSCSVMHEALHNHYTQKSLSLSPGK
Chain of human SIRPα1 extracellular domain 1-370, Avi-FXa-Fc tag (human) (chain, as listed by the source limits assumed): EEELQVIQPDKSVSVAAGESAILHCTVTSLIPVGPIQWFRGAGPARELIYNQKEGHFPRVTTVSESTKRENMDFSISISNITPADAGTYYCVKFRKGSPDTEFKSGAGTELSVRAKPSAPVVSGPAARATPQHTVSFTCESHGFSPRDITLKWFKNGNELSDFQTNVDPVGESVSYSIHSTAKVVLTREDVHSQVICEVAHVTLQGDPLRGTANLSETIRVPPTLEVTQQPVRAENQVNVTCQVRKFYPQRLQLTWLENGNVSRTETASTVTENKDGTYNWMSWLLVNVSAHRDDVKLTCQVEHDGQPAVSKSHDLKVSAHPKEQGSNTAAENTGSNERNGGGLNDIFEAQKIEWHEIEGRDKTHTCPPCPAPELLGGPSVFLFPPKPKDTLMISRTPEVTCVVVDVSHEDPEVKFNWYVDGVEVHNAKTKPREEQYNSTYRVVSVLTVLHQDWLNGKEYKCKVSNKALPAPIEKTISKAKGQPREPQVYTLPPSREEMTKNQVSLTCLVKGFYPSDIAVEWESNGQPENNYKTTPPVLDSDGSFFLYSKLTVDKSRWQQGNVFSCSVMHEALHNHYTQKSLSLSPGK
Chain of human SIRPβ1v2, AVI-tagged, biotinylated, monomeric form (human) (Q5TFQ8 30-371): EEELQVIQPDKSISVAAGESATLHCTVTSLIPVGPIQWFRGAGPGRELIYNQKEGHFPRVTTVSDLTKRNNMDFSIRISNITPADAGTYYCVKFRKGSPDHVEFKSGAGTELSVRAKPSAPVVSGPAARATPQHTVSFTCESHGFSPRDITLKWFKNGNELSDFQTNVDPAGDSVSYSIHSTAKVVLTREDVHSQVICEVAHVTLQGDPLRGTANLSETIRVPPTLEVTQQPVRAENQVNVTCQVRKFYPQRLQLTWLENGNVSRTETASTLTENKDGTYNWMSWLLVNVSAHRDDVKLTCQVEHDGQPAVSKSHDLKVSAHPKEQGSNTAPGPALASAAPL
Chain of human SIRPγ, extracellular domain, Avi-FXa-Fc tag (human) (chain, as listed by the source limits assumed): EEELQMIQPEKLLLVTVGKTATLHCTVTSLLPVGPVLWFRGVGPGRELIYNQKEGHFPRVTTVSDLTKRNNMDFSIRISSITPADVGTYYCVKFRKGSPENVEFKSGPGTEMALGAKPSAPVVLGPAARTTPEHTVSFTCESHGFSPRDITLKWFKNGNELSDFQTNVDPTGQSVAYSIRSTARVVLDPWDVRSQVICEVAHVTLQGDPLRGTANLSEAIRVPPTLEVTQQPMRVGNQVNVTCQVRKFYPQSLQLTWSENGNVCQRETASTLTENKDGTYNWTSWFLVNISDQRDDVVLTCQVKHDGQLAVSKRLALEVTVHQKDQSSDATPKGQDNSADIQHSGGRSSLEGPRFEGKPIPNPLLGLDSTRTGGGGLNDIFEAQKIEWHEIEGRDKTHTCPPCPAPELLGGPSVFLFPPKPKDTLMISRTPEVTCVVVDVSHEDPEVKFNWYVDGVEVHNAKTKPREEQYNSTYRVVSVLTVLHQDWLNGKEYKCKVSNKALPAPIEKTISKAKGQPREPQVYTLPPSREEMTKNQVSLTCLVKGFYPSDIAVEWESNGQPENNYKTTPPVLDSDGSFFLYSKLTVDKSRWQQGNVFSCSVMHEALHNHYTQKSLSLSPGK

Turning to “SE5A5 (mouse IgG1κ, Biolegend, purified anti-human CD172a/b) (antibody)”, the concentration giving a half-maximal response (EC50) in [1] turned out to be 1.48 µg/mL; in test [2], 0.05 µg/mL; in test [3] it was 0.09 µg/mL; in test [4] it was 0.62 µg/mL. In addition, the Kd in [5] turned out to be 0.0631 nM; in test [6] it was 0.358 nM; in [7] it was 1.8 nM; in [8], 0.0154 nM; in [9], 0.798 nM; in test [10], 0.0382 nM. Moreover, the equilibrium dissociation constant (Kd) stood at 0.287 nM in test [11] and 2.66 nM in test [12].
